Patent publication US20230365685A1 (SUZHOU NEOLOGICS BIOSCIENCE, published 2023)

Assays:
[1] = molecular target: T1, human TIM-3 recombinant protein (TIM-3-his) (human, UniProt Q8TDQ0 22-202); assay: biosensor (HFC sensor, Probe Life): antibody captured, TIM-3-his in solution, 1:1 fit;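 note: antigen applied as a twofold dilution series, association and dissociation phases recorded, KD obtained as koff divided by kon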
T1 construct: also called TIM-3 protein; not shown: His tag

mouse TIM-3 = molecular target: T2, mouse TIM-3 (mouse, UniProt Q8VIM0 20-281); assay: flow cytometry on cells stably expressing mouse TIM-3, PE-labelled secondary antibody; concentration not shown
T2 construct: whole, on cells

human TIM-3 = molecular target: T3, human TIM-3 (human, UniProt Q8TDQ0 22-202, limits assumed); assay: BLI (Octet-96); antigen not named in the paragraph
T3 construct: also called HAVCR2; target antigen

Binder	Kd [1] [nM]	koff [1] [s⁻¹]	kon [1] [M⁻¹ s⁻¹]	binding result (mouse TIM-3)	Kd (human TIM-3) [nM]
18C6 (antibody, V domains shown) VH: QVQLQQPGAEIVMPGASVKMSCKASGYKFTDFLMHWVKQRPGQGLEWIGAIDTSDSYASYNQKFKGKATLTLDESSSTAYMQLSSLTSEDSAVYYCSREAMDYWGQGTSVTVSS VL: DVVMTQTPLSLPVSLGDQASISCRSSQSLVHSNGNTYLHWFLQKPGQSPKLLIYKVSNRFSGVPDRFSGSGSGTDFTLKISRVEAEDLGVYFCCQSTHVPPLTFGAGTKLELK	0.207	0.00012	580000	no binding	
CH 5# (antibody, V domains shown) VH: QVQLQQSGPDLVKPGASVKISCKASGYSFTGYYMHWVKQSHGKSLEWIGRVNPNNGGTDYDQKFKGKAILSVDKSSNTAYMELRSLTSEDSAVYYCAREGEYFDYYAMDYWGQGTTVTVSS VL: DIELTQSPASLAVSLGQRATISCRASESVEYYGTSLMQWYQQKPGQPPKLLIYAASNVESGVPARFSGSVSGTDFSLNIHPVEEDDIAMYFCQQSRKVPITFGSGTKLEIK	188	0.00153	8130		
CH 8# (antibody, V domains shown) VH: QVKLQQSGPDLVKPGASVKISCKASGYSFTGYYMHWVKQSHGKSLEWIGRVYPNNGGTSYNQKFKGKAILTVDKSSSTAYMELRSLTSEDSAVYYCAREGEYFDYFAMDYWGQGTTVTVSS VL: DIELTQSPASLAVSLGQRATISCRASESVEYYGTSLMQWYQQKPGQPPKLLIYAASNVESGVAARFSGSGSGTDFSLNIHPVEEDDIAMYFCQPSRKVPYTFGGGTKLEIK	512	0.00253	4930		
3E6 VH4/3E6 VL0 (antibody, V domains shown, Humanized 3E6; VH and VL cloned into vectors with constant regions (CH1-FC/CL) and expressed in 293F cells; also called humanized 3E6 VH4/VL0) VH: QVQLQESGPGLVKPSQTLSLTCTVSGYSITSGFAWNWIRQPPGNGLEWIGYISHSGSTSYNPSLKSRITISVDTSKNQFSLKLSSVTAADTAVYYCARGYRSPWFAYWGQGTTVTVSS VL: DIQMTQSPSSLSASVGDRVTITCKASQNVGANVAWYQQKPGKAPKSLIYSASYRYSGVPSRFSGSGSGTDFTLTISSLQPEDFATYYCQQYNSYPTFGGGTKVEIK					1.87
3E6 VH1/3E6 VL0 (antibody, V domains shown, Humanized 3E6; VH and VL cloned into vectors with constant regions (CH1-FC/CL) and expressed in 293F cells; also called humanized 3E6 VH1/VL0) VH: QVQLQESGPGLVKPSQTLSLTCTVSGYSITSGFAWNWIRQFPGNGLEWMGYISHSGSTSYNPSLKSRVTISVDTSKNQFSLKLSSVTAADTAVYYCARGYRSPWFAYWGQGTTVTVSS VL: DIQMTQSPSSLSASVGDRVTITCKASQNVGANVAWYQQKPGKAPKSLIYSASYRYSGVPSRFSGSGSGTDFTLTISSLQPEDFATYYCQQYNSYPTFGGGTKVEIK					467
3E6 VH2/3E6 VL0 (antibody, V domains shown, Humanized 3E6; VH and VL cloned into vectors with constant regions (CH1-FC/CL) and expressed in 293F cells; also called humanized 3E6 VH2/VL0) VH: QVQLQESGPGLVKPSQTLSLTCTVSGYSITSGFAWNWIRQPPGKGLEWMGYISHSGSTSYNPSLKSRVTISVDTSKNQFSLKLSSVTAADTAVYYCARGYRSPWFAYWGQGTTVTVSS VL: DIQMTQSPSSLSASVGDRVTITCKASQNVGANVAWYQQKPGKAPKSLIYSASYRYSGVPSRFSGSGSGTDFTLTISSLQPEDFATYYCQQYNSYPTFGGGTKVEIK					2.21
3E6 VH3/3E6 VL0 (antibody, V domains shown, Humanized 3E6; VH and VL cloned into vectors with constant regions (CH1-FC/CL) and expressed in 293F cells; also called humanized 3E6 VH3/VL0) VH: QVQLQESGPGLVKPSQTLSLTCTVSGYSITSGFAWNWIRQPPGNGLEWIGYISHSGSTSYNPSLKSRVTISVDTSKNQFSLKLSSVTAADTAVYYCARGYRSPWFAYWGQGTTVTVSS VL: DIQMTQSPSSLSASVGDRVTITCKASQNVGANVAWYQQKPGKAPKSLIYSASYRYSGVPSRFSGSGSGTDFTLTISSLQPEDFATYYCQQYNSYPTFGGGTKVEIK					1.98
3E6 VH5/3E6 VL0 (antibody, V domains shown, Humanized 3E6; VH and VL cloned into vectors with constant regions (CH1-FC/CL) and expressed in 293F cells; also called humanized 3E6 VH5/VL0) VH: QVQLQESGPGLVKPSQTLSLTCTVSGYSITSGFAWNWIRQPPGNGLEWIGYISHSGSTSYNPSLKSRITISRDTSKNQFSLKLSSVTAADTAVYYCARGYRSPWFAYWGQGTTVTVSS VL: DIQMTQSPSSLSASVGDRVTITCKASQNVGANVAWYQQKPGKAPKSLIYSASYRYSGVPSRFSGSGSGTDFTLTISSLQPEDFATYYCQQYNSYPTFGGGTKVEIK					1.78
3E6 VH6/3E6 VL0 (antibody, V domains shown, Humanized 3E6; VH and VL cloned into vectors with constant regions (CH1-FC/CL) and expressed in 293F cells; also called humanized 3E6 VH6/VL0) VH: QVQLQESGPGLVKPSQTLSLTCTVSGYSITSGFAWNWIRQPPGKGLEWMGYISHSGSTSYNPSLKSRITISVDTSKNQFSLKLSSVTAADTAVYYCARGYRSPWFAYWGQGTTVTVSS VL: DIQMTQSPSSLSASVGDRVTITCKASQNVGANVAWYQQKPGKAPKSLIYSASYRYSGVPSRFSGSGSGTDFTLTISSLQPEDFATYYCQQYNSYPTFGGGTKVEIK					1.46
3E6 VH7/3E6 VL0 (antibody, V domains shown, Humanized 3E6; VH and VL cloned into vectors with constant regions (CH1-FC/CL) and expressed in 293F cells; also called humanized 3E6 VH7/VL0) VH: QVQLQESGPGLVKPSQTLSLTCTVSGYSITSGFAWNWIRQPPGKGLEWMGYISHSGSTSYNPSLKSRITISRDTSKNQFSLKLSSVTAADTAVYYCARGYRSPWFAYWGQGTTVTVSS VL: DIQMTQSPSSLSASVGDRVTITCKASQNVGANVAWYQQKPGKAPKSLIYSASYRYSGVPSRFSGSGSGTDFTLTISSLQPEDFATYYCQQYNSYPTFGGGTKVEIK					1.96
84G10 (antibody, V domains shown) VH: QVQLQQSGGELVRPGSSVKISCKASGYAFSSYWMNWVKQRPGQGLEWIGQIYPGEGDTNYNGKFKGKATLTADKSSSTAYMQLSSLTSEDSAVYFCARGHFYGSSYDWFAYWGQGTLVTVSA VL: DIQMTQSPASLSASVGETVTITCRASENINSYLAWYQQKQGKSPQLLVYHAKTLASGVPSRFSGSGSGTQFSLKINSLQPEDFGSYYCQHHYGTPLTFGAGARLELK	2.84	0.00197	692000		
CH 9# (antibody, V domains shown) VH: QVKLQESGPGLVAPSQSLSITCTVSGFSLTGYGVHWVRQPPGKGLEWLGMIWGDGSTDYNSALKSRLSISKDNSKSQVFLKMNSLQTDDTARYYCARDRGNHWYFDVWGQGTTVTVSS VL: DIELTQSPAILSASPGEKVTMTCRASSSVSYMHWYQQKPGSSPKPWIYATSNLASGVPARFSGSGSGTSYSLTISRVEAEDAATYYCQQWSSNPLTFGAGTKLEIK	553	0.00287	5190		
36A2 (antibody, V domains shown, also called 36A12) VH: DVQLVESGGGLVQPGGSRKLSCAASGFTFSSFEMHWVRQAPETGLEWVAYISGGSTTIYYADTMKGRFTISRDNPENTLFLQMTSLRSEDTAIYYCVRSYYGLLDYWGQGTTLTVSS VL: NIMMTQSPSSLSVSTGEKVTMSCKSSQSVLHSSNQKNFLAWFQQKPGQSPKLLIYWASTRESGVPDRFTGSGSGTDFTLTINNVQPEDLAVYYCHQYLSSLTFGAGTKLELK	1.01	0.000559	553000		
36B11 (antibody, V domains shown) VH: QVTLKESGPGILQPSQTLSLTCSFSGFSLSTSGMGVGWIRQPSGKGLEWLAHIWWDDVKRYNPALKSRLTISKDTSSSQVFLKIASVDTADTATYYCVRTFITTTTMDYWGQGTSVTVSS VL: QIVLTQSPTIMSASPGEKVTLTCSASSGISSSYLYWYQQKPGSSPKLWIYGTSNLASGVPARFSGSGSGTSYSLTISSLEAEDAASYFCHQWSNYPYTFGGGTKLEIK	0.432	0.000383	885000		
38A8 (antibody, V domains shown) VH: QVQLQQPGAELVKPGASVKMSCKASGYTFTTYNMHWVKQTPGQGLEWIGGIYPGNGDTSYNQKFKGKATLTADKSSSTAYMQLSSLTSEDSAVYYCARSYYTFDAMDCWGQGTSVTVSS VL: DIVMSQSPSSLAVSAGEKVTMSCKSSQSLLNSRTRKNYLAWYQQKPGRSPKLLIYWASTRESGVPDRFTGGGSGTDFTLTISSVQAEDLAVYYCKQSYSLLTFGAGTKLELK	1.36	0.00126	928000		
38F8 (antibody, V domains shown) VH: EVQLQQLGAELVKPGASVKISCKASGYIFTDYSMDWVKQSHGESLEWIGDINPNYDSLSYNQKFKGKATLTVDKSSSTAYMELRSLTSEDTAVYYCARRGYGKDYFDFWGQGTSLTVSS VL: TWGMTQTTSSLSASLGDRVTISCRASQDISNYLNWYQQKPDGTVKLLIYHTSRLYSGVPSRFTGSGSGTDYSLTISNLEQEDIATYFCQQGNTLPLTFGAGTKLELK	1.74	0.00255	1.47e+06		
40F11 (antibody, V domains shown) VH: QIQLVQSGPELKKPGETVRISCKASGYTFRTAEMQWVQKMPGRGLKWIGWINTRSGVPKYAEDFKGRFALSLETSATTAYLQISNLKNEDTATYFCTRGTYAMDYWGQGTSVTVSS VL: ENVLTQSPAIMSASPGEKVTMTCRASSIVSSSYLHWYQQKSGASPKLWIYSTSNLPSGVPARFSGSGSGTFYSLTVSSVESEDAATYYCQQYSGYPYTFGGGTKLEIK	2.21	0.0019	857000		
50H9 (antibody, V domains shown) VH: EVQLVESGGDLVKPGGSLKLSCAASGFTFSTNGMSWVRQIPDKRLEWVATISSGGSNTYYPDSVKGRFTISRDNAKNTLYLQMSSLKSEDTAMYYCARRSELGPFAYWGQGTLVTVSA VL: DVQMIQSPSSLSASLGDIVTMTCQASQGSSVNLNWFQQKPGKSPKLLIHGSNILEDGVPSRFSGSRYGTDFTLTISSLENEDMATYFCLQHSYLPYTFGGGTKLEIK	6	0.00903	1.51e+06		
